Data from publication PMC5300761, “Characterizing the Coding Region Determinant-Binding Protein (CRD-BP)-Microphthalmia-associated Transcription Factor (MITF) mRNA interaction”.

Assays:
CRD-BP WT [1] = target: T1, CRD-BP WT (mouse, UniProt O88477 1-577); assay: fluorescence polarization; 10 nM oligo, 0-1000 nM protein; EMSA as in refs 21,22 (buffer not given; competitor preincubation 35 C); FP: binding buffer stock 10 mM Tris-HCl pH 7.4, 2.5 mM EDTA, 5% glycerol, 0.002% Triton X-100, 37 C 30 min; settings: protein: recombinant; (pET28b(+), Ni-NTA); label: 3' 6-FAM
CRD-BP WT [2] = target: T1, CRD-BP WT; assay: fluorescence polarization; 10 nM RNA, 0-1000 nM protein; EMSA as in refs 21,22 (buffer not given; competitor preincubation 35 C); FP: binding buffer stock 10 mM Tris-HCl pH 7.4, 2.5 mM EDTA, 5% glycerol, 0.002% Triton X-100, 37 C 30 min; settings: protein: recombinant; (pET28b(+), Ni-NTA); label: 3' 6-FAM

T1 sequence (O88477 whole entry): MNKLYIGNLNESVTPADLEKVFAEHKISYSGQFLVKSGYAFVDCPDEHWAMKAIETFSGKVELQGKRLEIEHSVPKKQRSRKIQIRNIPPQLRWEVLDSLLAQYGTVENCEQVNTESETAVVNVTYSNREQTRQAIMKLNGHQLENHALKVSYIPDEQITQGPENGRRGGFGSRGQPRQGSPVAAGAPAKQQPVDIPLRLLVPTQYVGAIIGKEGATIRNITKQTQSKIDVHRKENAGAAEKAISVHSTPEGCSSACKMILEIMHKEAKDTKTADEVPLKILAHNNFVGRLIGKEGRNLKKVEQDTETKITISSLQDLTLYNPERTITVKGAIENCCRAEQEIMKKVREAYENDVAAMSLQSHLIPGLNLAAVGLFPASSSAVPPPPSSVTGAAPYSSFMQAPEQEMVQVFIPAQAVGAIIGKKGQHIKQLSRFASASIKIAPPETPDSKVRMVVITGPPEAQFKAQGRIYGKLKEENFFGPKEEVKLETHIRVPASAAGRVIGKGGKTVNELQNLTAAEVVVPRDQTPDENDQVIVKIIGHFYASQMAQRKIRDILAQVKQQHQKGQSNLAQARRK

TAAAAATCTCAAATCAAGTTTC (ssDNA) [MHO-1_FL]
binding result (CRD-BP WT [1]): no binding

ATTCAGTTCACAGATACTGCAC (ssDNA) [MHO-7_FL]
binding result (CRD-BP WT [1]): no binding

AAAUUAGGGCCCAAUUAAUAAUCAGCAAGAAUUUGAUCG (ssRNA) [FL-CD44 RNA]
binding result (CRD-BP WT [2]): binds
